Data published in the supplement of paper PMC10567573.
± gives the standard deviation.

Assay: protein stability index of a GFP-peptide fusion (GPS, HEK-293T) (PSI 1-6); higher = more stable
[1] = treatment: DMSO, c terminus: a fixed tail appended
[2] = treatment: MLN4924 1 uM, 8 h, c terminus: a fixed tail appended
[3] = treatment: DMSO, c terminus: native
[4] = treatment: MLN4924 1 uM, 8 h, c terminus: native
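Further: 24-mer peptide tiles fused after GFP, lentivirally expressed, FACS-sorted into six equal bins by GFP/DsRed ratio, decoded by Illumina sequencing, PSI is the read-weighted mean bin number.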

Sequence | protein stability index [1] | protein stability index [2] | protein stability index [3] | protein stability index [4]
RVFSQGSHAWEVALGGLQSWRVGV [TRIM35] | 2.46 ± 0.42 | 2.31 ± 0.38 | – | –
EEEGGEEEEEAAMYEEEMEREEIT [FAM50A] | 5.6 ± 0.13 | 5.71 ± 0.11 | – | –
VLGINRAYGKNSLSKNLIKMLSKA [AUH] | – | 2.244 ± 0.021 | – | –
IFTKKLPHPDLPAEEKEQLLHNDE [USP39] | 5 ± 0.16 | 5.03 ± 0.1 | – | –
MILLVNLFVLLSVVCVLLNLAGFI [FAM189A2] | 3.03 ± 0.34 | 3.14 ± 0.47 | – | –
GGAGKEGVRVNNRFELINIDDLED [TCF25] | 4.82 ± 0.49 | 4.91 ± 0.28 | – | –
ALAREFSCPFFETSAAYRYYIDDV [RIT1] | 2.29 ± 0.13 | 2.08 ± 0.12 | – | –
MDLRTAVYNAARDGKLQLLQKLLS [FEM1A] | 2.21 ± 0.26 | 2.28 ± 0.24 | – | –
FLKNTEVSSMECEKNLYWICNKPY [CD69] | 2.32 ± 0.61 | 2.27 ± 0.21 | – | –
FFMTATQYFTNRLDMSQNVSLVTA [SLC29A1] | 3.04 ± 0.4 | 2.92 ± 0.47 | – | –
AKAQVRKAVQYEEKNPCRTLCCFC [STX11] | 2.97 ± 0.24 | 3.36 ± 0.54 | – | –
HLIRHQITHTREEQPHGRSRRREQ [ZNF8] | 4.57 ± 0.13 | 4.75 ± 0.051 | – | –
RSLQRGCRALRDPALDSLAYEYER [TRADD] | 3.13 ± 0.059 | 3.47 ± 0.32 | – | –
CHRHYHSMEVFTHYDLLNLNGTKV [LOXL2] | 2.21 ± 0.12 | 1.99 ± 0.25 | – | –
GLGNIWRFPYLCQKNGGGAYLVPY [SLC6A17] | 2.44 ± 0.43 | 2.54 ± 0.49 | – | –
GSLGSRAEPAPRAREGGGCGRSEV [SMAD6] | 4.84 ± 0.15 | 4.92 ± 0.11 | – | –
VGALLVYDIAKHLTYENVERWLKE [RAB11A] | 2.54 ± 0.32 | 2.32 ± 0.54 | – | –
NGSSEKREVRQFQFTAWPDHGVPE [PTPRD] | 4.41 ± 0.14 | 4.43 ± 0.19 | – | –
SPMYFFLASLSFIDTVYSTAFAPK [OR4A15] | 3.01 ± 0.35 | 2.92 ± 0.54 | – | –
FHINQTLREAHFHSLQHRGRPLT [FAM104A] | – | – | 2.3 ± 0.45 | 2.2 ± 0.29
FKPKLYKGDRGLPLEGSAKGKVQA [RBBP5] | 3.96 ± 0.44 | 3.98 ± 0.27 | – | –
LHGKAIKVEQAKKPSFQSGGRRRP [RBMY1A1] | 3.89 ± 0.2 | 4.21 ± 0.16 | – | –
DAPLPGSKAKPKPPKQAQKEQRKQ [TBC1D10A] | 5.45 ± 0.087 | 5.31 ± 0.18 | – | –

Sequence | protein stability index [1] | protein stability index [2] | protein stability index [3] | protein stability index [4]
LFYSAEVEMLCDQAWGSMLEVPAG [CCDC3] | 1.92 ± 0.53 | 2.26 ± 0.41 | – | –
RWWEDLERDFPCPVCRKTSRYRSL [TRIM39] | 2.36 ± 0.21 | 2.77 ± 0.56 | – | –
IRKTVKRLRKHQHVGDFARDLAAR [ELOA2] | 3.6 ± 0.23 | 3.69 ± 0.23 | – | –
SITFTTGLEAPRDLEAKEVTPRTA [TNXB] | 5.22 ± 0.37 | 5.16 ± 0.3 | – | –
FSVAPHETQTQRGGEFQCGLEAAS [RNF180] | 3.37 ± 0.41 | 3.36 ± 0.14 | – | –
YKAKSRSPGSPVGEGTGSPPKWQI [ADD1] | 3.5 ± 0.28 | 3.76 ± 0.33 | – | –
EEEGPSTFPDLESEFQAALSRKVA [MAGEA3] | 4.95 ± 0.22 | 5.12 ± 0.22 | – | –
PRPDMAPELTPEEEQATKQFLEEI [PTPN9] | 5.12 ± 0.48 | 5.08 ± 0.62 | – | –
VKVHGLLKTFVKQTDHIKGIRQIT [GFOD1] | 2.53 ± 0.38 | 2.34 ± 0.41 | – | –
YESHSTSELEDLTEPEQRELKTKL [TPD52L3] | 5.63 ± 0.13 | 5.52 ± 0.11 | – | –
YRNLTHNPPSDFSFQNMNSKRKAE [STK38L] | 4.47 ± 0.17 | 4.58 ± 0.087 | – | –
PVTPLGLQNEVPPQPDPVFLEALS [SERTAD3] | 4.55 ± 0.33 | 4.46 ± 0.27 | – | –
VVVFKALVTTHHLMVHGNERFIQY [SNAP91] | 3.2 ± 0.42 | 3.02 ± 0.5 | – | –
NGVTQKASAPTYPSLYSSYHQGCL [NANOGP8] | 2.75 ± 0.11 | 2.93 ± 0.34 | – | –
GAIFCPPCYDVRYAPSCAKCKKKI [PDLIM7] | 3.16 ± 0.24 | 3.45 ± 0.34 | – | –
LLLLLPTLQSITWQMIEQIQFIKL [HNF4A] | 3.58 ± 0.39 | 3.28 ± 0.28 | – | –
AKVPRPPSTLLPTPEEQGELEPLK [FOXJ1] | 5.19 ± 0.23 | 5.3 ± 0.18 | – | –
KPGPITLTVAKCWDPSPRGCFTLP [DVL3] | 2.41 ± 0.32 | 2.59 ± 0.11 | – | –
NLWYSFQDEEDMFMVVDLLLGGDL [STK32A] | 2.41 ± 0.69 | 2.2 ± 0.39 | – | –
GEGTGSPPKWQIGEQEFEALMRML [ADD1] | 3.29 ± 0.45 | 3.2 ± 0.31 | – | –
FLDLLSVFSDTATPDIKSHYAFRI [CIB1] | 2.86 ± 0.6 | 2.85 ± 0.76 | – | –
SLVHMDIKPSNIFISRTSIPNAAS [WEE1] | 2.43 ± 0.24 | 2.48 ± 0.21 | – | –
ELKLGRKVPESLVRSLRGEEPVPR [LURAP1L] | 3.85 ± 0.25 | 4.16 ± 0.33 | – | –

Sequence | protein stability index [1] | protein stability index [2] | protein stability index [3] | protein stability index [4]
AVNQEAMNNAQRIEKWVILEKDFS [ACSBG2] | 3.16 ± 0.31 | 3.47 ± 0.46 | – | –
GLVKKYMNSLLIGELSPEQPSFEP [FADS1] | 2.25 ± 0.089 | 2.34 ± 0.45 | – | –
LAPIHKLEEALYEYQPLQIETYGP [MNAT1] | 2.41 ± 0.46 | 2.71 ± 0.49 | – | –
ARIYEETLNILLYEAQDGRGPDNA [KCTD10] | 3.23 ± 0.28 | 3.04 ± 0.6 | – | –
NNKLKLQQKLVIDTVTEVTARMEM [CBY2] | 2.94 ± 0.53 | 2.89 ± 0.41 | – | –
DTGHDSDKSDQSLPNASADSLGGS [TRAF3IP2] | 5.35 ± 0.42 | 5.51 ± 0.18 | – | –
TNFVSRYDPRFNSWIQLPPMQERR [KLHL14] | 3.22 ± 0.084 | 3.34 ± 0.31 | – | –
PKPLTRKPILLQRMEGSQEVVNMA [WDFY2] | 3.66 ± 0.049 | 3.65 ± 0.41 | – | –
NLLISLTFLTVTDLIGLPWVCFIY [SLC2A12] | 3.36 ± 0.45 | 3.19 ± 0.63 | – | –
DWNEWRDYHLLHPVENIPEIILYW [SLC25A25] | 2.35 ± 0.51 | 2.2 ± 0.12 | – | –
ETENIIAANHWVLPAAEFHGLWDS [TRIP13] | 3.28 ± 0.29 | 3.36 ± 0.26 | – | –
MEKIPFVLGGNLQGGELVVAYPYD [CPXM2] | 2.81 ± 0.48 | 2.79 ± 0.77 | – | –
KGGISETRIEKRIVITGDADIDHD [EPB41L3] | 5.31 ± 0.2 | 5.16 ± 0.51 | – | –
FEGFQAVSLKQEGDDQPSETDHLS [TPRG1] | 5.51 ± 0.17 | 5.54 ± 0.23 | – | –
IFHSRTSLQKLSTKLSAQSAQYSQ [FCHSD1] | 2.91 ± 0.17 | 2.98 ± 0.34 | – | –
AQSPGAVEEILDRENKRMADSLAS [BET1L] | 5.12 ± 0.14 | 5.35 ± 0.26 | – | –
HKRISAFRALQHSYLHKDEGNPE [CDK4] | – | – | 4.15 ± 0.26 | 4.04 ± 0.47
DLSDNRNEDPLVLLAWRCTKLSLL [FBXO33] | 2.54 ± 0.38 | 2.22 ± 0.24 | – | –
SSYFDSFQEAQIKRKARNEGRNRR [CDKL4] | 3.93 ± 0.76 | 4.96 ± 0.35 | – | –
LCLDLAPSETGNTFVSGGCDKKAM [GNB5] | 3.96 ± 0.15 | 4.02 ± 0.17 | – | –
HEEEVSVLRCQLGDRLNVEVDAAP [KRT36] | 5.17 ± 0.26 | 4.95 ± 0.32 | – | –
DRGSCVSTTEGIQLAKELGATYLE [RHOBTB3] | 4.45 ± 0.14 | 4.47 ± 0.24 | – | –
LIYTLKNAEMKSAMRKLWSKKVSL [OR4A15] | 2.41 ± 0.97 | 2.04 ± 0.12 | – | –

Sequence | protein stability index [1] | protein stability index [2] | protein stability index [3] | protein stability index [4]
FTKNNFFVEKNPTIVNFPITNVDL [USP39] | 2.98 ± 0.52 | 2.7 ± 0.29 | – | –
YAPSCAKCKKKITGEIMHALKMTW [PDLIM7] | 2.53 ± 0.33 | 2.44 ± 1 | – | –
DWVVVKEPVIKVAAIDNGLAFPLK [PI4K2A] | 2.52 ± 0.43 | 2.94 ± 0.29 | – | –
ISNIDTTIEGTSDDLTVVDAASLR [MFF] | 5.09 ± 0.27 | 4.82 ± 0.56 | – | –
LLGAVNFFVSSINTLVTKTMEDTL [ARFIP2] | 3.13 ± 0.21 | 3.07 ± 0.26 | – | –
EEREEGPPRIPQADQWKSSNKSLV [RHOBTB1] | 4.99 ± 0.22 | 5.08 ± 0.29 | – | –
SEKASKKYVSKELAKEIRVKAEPF [EIF5] | 4.29 ± 0.28 | 4.36 ± 0.18 | – | –
KLATQHKQLISQTKKKQWCYNCEE [ZMYND11] | 3.48 ± 0.4 | 3.8 ± 0.23 | – | –
FEGMAFLETEQGKPFVSVFRHLRL [GMCL1] | 2.66 ± 0.58 | 2.25 ± 0.31 | – | –
SFGVDEEERVRVLQGVRLSENVVN [CHCHD6] | 4.39 ± 0.2 | 4.59 ± 0.15 | – | –
NMERFGEDNLEDDDVEMKNGITQG [CDC14A] | 5.54 ± 0.19 | 5.53 ± 0.23 | – | –
RAVLKYLYTGELDENERDLMHIAH [RHOBTB2] | 2.34 ± 0.13 | 2.49 ± 0.27 | – | –
MKDRLAELLDLSKQYDQQFPDGDD [STX11] | 4.77 ± 0.33 | 4.89 ± 0.15 | – | –
AKLAINQGMEVDLVTGLAIEEACY [AUH] | 2.07 ± 0.21 | 2.32 ± 0.44 | – | –
PELTAALRDIRAQYESIAAKNLQE [PRPH] | 3.52 ± 0.65 | 3.8 ± 0.48 | – | –
FVMFLCLADYLVPILAPRIFGSNK [ARL6IP1] | 3.21 ± 0.48 | 3.17 ± 0.62 | – | –
AKKLPPVQESQSERLQAAGTDSAG [ELOA2] | 5.2 ± 0.18 | 5.09 ± 0.24 | – | –
LREAEIARIRDEEAQRASFLQNAV [LRRC45] | 4.37 ± 0.18 | 4.43 ± 0.27 | – | –
LPGRKLVSSAVSPSIIPQEDPSQQ [INTS4] | 5.12 ± 0.12 | 5.02 ± 0.32 | – | –
TSTKTDSEEGSWAQTLAYGDMNHE [PPFIA4] | – | 4.66 ± 0.54 | – | –
